Experimental data: publication PMC9482650, “Quantitative fragmentomics allow affinity mapping of interactomes” (Nature Communications, 2022)

How the values were obtained:
Experiment in all cases: holdup assay
Design in all cases: key: below the threshold = too weak to quantify, mostly under pKd 3.1 to 4
[1] = biological target: T1, APBA1_1, Q02410
T1 sequence (Q02410 651-752, limits assumed, looked up): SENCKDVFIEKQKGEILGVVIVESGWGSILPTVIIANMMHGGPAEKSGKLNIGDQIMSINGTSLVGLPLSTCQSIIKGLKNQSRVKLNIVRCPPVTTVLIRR

[2] = biological target: ARHGEF12, Q9NZN5-2
[3] = biological target: DLG1_1, Q12959
[4] = biological target: T2, DLG3_1, Q92796
T2 sequence (Q92796 125-227, limits assumed, looked up): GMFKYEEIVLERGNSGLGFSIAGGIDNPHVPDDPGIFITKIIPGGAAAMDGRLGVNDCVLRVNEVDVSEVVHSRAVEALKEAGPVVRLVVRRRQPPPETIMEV

[5] = biological target: T3, DLG3_3, Q92796
T3 sequence (Q92796 374-475, limits assumed, looked up): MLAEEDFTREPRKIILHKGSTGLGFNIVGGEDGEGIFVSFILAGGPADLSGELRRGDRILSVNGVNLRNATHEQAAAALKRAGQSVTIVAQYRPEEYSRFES

[6] = biological target: FRMPD3, Q5JV73
[7] = biological target: FRMPD4, Q14CM0
[8] = biological target: GIPC2, Q8TF65
[9] = biological target: T4, GRIP1_3, Q9Y3R0
T4 sequence (Q9Y3R0 247-346, limits assumed, looked up): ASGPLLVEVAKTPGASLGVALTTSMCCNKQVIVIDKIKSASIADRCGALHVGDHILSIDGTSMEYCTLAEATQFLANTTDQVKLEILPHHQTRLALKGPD

[10] = biological target: T5, GRIP1_5, Q9Y3R0
T5 sequence (Q9Y3R0 568-668, limits assumed, looked up): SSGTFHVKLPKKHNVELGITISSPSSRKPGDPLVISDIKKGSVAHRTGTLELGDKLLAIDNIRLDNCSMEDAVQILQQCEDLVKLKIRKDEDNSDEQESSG

[11] = biological target: IL16_3, Q14005
[12] = biological target: IL16_4, Q14005
[13] = biological target: Inadl_3, Q8NI35
[14] = biological target: Inadl_4, Q8NI35
[15] = biological target: Inadl_9, Q8NI35
[16] = biological target: LAP2, Q96RT1
[17] = biological target: T6, LNX2_2, Q8N448
T6 sequence (Q8N448 334-432, limits assumed, looked up): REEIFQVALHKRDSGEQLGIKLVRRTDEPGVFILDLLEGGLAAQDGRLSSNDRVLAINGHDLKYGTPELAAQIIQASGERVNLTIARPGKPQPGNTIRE

[18] = biological target: MAGI1_2, Q96QZ7
[19] = biological target: MAGI2_2, Q86UL8
[20] = biological target: MAGI2_5, Q86UL8
[21] = biological target: T7, MPDZ_12, O75970
T7 sequence (O75970 1857-1958, limits assumed, looked up): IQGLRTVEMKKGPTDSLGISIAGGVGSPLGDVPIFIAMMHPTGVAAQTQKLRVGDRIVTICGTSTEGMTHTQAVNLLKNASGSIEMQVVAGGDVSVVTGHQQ

[22] = biological target: T8, MPDZ_5, O75970
T8 sequence (O75970 695-796, limits assumed, looked up): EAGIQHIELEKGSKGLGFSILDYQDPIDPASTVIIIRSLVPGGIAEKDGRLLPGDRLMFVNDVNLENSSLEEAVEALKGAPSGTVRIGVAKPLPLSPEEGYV

[23] = biological target: NOS1, P29475
[24] = biological target: T9, PCLO, Q9Y6V0
T9 sequence (Q9Y6V0 4491-4600, limits assumed, looked up): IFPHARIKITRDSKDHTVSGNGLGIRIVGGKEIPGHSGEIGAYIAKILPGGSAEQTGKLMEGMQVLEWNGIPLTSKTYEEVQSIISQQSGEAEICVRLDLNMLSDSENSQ

[25] = biological target: T10, PDZRN3_1, Q9UPQ7
T10 sequence (Q9UPQ7 244-349, limits assumed, looked up): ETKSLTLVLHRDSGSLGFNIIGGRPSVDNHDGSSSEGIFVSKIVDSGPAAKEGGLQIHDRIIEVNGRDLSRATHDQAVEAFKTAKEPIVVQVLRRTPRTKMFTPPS

[26] = biological target: T11, RHPN1, Q8TCX5
T11 sequence (Q8TCX5 508-602, limits assumed, looked up): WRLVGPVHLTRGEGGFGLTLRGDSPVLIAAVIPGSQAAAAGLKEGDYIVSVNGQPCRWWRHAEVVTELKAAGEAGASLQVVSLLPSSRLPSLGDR

[27] = plain residues with an end cap or a label only (N-terminal biotin on a linker: ado-ado)
[28] = plain residues with an end cap or a label only (N-terminal biotin on a linker: ado-ado, ttds)
[29] = plain residues with an end cap or a label only (N-terminal biotin on a linker: ttds)
[30] = plain residues with an end cap or a label only (N-terminal biotin on a linker: ahx)

Chain of Inadl_3, Q8NI35 (Q8NI35 359-469): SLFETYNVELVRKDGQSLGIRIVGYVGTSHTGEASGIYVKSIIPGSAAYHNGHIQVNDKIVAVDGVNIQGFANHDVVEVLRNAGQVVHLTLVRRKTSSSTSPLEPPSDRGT
Chain of FRMPD3, Q5JV73 (Q5JV73 12-100): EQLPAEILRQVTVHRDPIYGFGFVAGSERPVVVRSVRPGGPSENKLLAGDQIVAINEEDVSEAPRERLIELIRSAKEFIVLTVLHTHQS
Chain of MAGI2_5, Q86UL8 (Q86UL8 915-1017): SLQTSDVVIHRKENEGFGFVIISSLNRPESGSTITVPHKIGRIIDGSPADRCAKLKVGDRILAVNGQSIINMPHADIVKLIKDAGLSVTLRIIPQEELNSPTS
Chain of IL16_4, Q14005 (Q14005 1229-1329): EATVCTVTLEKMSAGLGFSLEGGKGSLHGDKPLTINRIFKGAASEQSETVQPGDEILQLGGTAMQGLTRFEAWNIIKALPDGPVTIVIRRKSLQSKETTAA
Chain of MAGI1_2, Q96QZ7 (Q96QZ7 456-580): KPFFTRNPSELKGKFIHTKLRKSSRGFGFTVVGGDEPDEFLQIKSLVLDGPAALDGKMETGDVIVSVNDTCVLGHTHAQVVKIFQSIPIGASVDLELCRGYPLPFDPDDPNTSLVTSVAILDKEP
Chain of IL16_3, Q14005 (Q14005 1107-1207): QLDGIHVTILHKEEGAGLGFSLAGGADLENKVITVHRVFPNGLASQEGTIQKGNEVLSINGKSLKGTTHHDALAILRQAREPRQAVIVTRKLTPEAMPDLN
Chain of NOS1, P29475 (P29475 9-101): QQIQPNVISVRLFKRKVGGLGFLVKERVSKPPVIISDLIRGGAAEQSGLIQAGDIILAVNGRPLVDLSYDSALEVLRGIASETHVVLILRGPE
Chain of FRMPD4, Q14CM0 (Q14CM0 67-160): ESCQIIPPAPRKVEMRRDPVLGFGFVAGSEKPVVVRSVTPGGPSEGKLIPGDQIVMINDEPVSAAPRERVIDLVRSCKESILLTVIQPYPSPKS
Chain of Inadl_9, Q8NI35 (Q8NI35 1530-1615): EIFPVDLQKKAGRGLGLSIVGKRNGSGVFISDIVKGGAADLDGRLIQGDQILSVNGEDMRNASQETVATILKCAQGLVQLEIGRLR
Chain of ARHGEF12, Q9NZN5-2 (Q9NZN5 other isoform, or with tags, fused parts or gaps): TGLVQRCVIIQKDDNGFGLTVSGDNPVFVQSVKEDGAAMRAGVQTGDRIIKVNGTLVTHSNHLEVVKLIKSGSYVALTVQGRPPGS
Chain of GIPC2, Q8TF65 (Q8TF65 112-203): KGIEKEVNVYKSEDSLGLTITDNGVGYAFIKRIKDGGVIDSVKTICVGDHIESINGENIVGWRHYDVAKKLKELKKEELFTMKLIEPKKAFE
Chain of LAP2, Q96RT1 (Q96RT1 other isoform, or with tags, fused parts or gaps): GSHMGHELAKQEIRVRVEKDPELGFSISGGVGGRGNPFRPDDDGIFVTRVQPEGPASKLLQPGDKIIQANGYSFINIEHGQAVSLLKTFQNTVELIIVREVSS
Chain of MAGI2_2, Q86UL8 (Q86UL8 410-522): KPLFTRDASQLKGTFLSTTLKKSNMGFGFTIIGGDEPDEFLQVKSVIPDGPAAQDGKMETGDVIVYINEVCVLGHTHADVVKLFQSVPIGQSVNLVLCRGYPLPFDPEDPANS
Chain of Inadl_4, Q8NI35 (Q8NI35 547-651): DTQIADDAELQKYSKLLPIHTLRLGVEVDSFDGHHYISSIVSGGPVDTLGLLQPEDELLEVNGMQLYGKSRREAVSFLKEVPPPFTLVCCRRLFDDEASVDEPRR

B1: DCHS2, Q6V1P9 (peptide)
chain: ELKAEDEVQI
- pKd [1, 27]: below the threshold
- pKd [2, 27]: below the threshold
- pKd [3, 27]: below the threshold
- pKd [4, 27]: below the threshold
- pKd [5, 27]: below the threshold
- pKd [6, 27]: below the threshold
- pKd [7, 27]: below the threshold
- pKd [8, 27]: below the threshold
- pKd [9, 27]: below the threshold
- pKd [10, 27]: below the threshold
- pKd [11, 27]: below the threshold
- pKd [12, 27]: 3.6
- pKd [13, 27]: below the threshold
- pKd [14, 27]: below the threshold
- pKd [15, 27]: below the threshold
- pKd [16, 27]: below the threshold
- pKd [17, 27]: 3.71
- pKd [18, 27]: below the threshold
- pKd [19, 27]: below the threshold
- pKd [20, 27]: below the threshold
- pKd [21, 27]: below the threshold
- pKd [22, 27]: below the threshold
- pKd [23, 27]: 3.74
- pKd [24, 27]: below the threshold
- pKd [25, 27]: below the threshold
- pKd [26, 27]: below the threshold

B2: KCNA4, P22459 (peptide)
chain: SNAKAVETDV
- pKd [1, 28]: below the threshold
- pKd [2, 28]: 3.88
- pKd [3, 28]: 4.72
- pKd [4, 28]: 4.25
- pKd [5, 28]: below the threshold
- pKd [6, 28]: below the threshold
- pKd [7, 28]: below the threshold
- pKd [8, 28]: below the threshold
- pKd [9, 28]: below the threshold
- pKd [10, 28]: below the threshold
- pKd [11, 28]: below the threshold
- pKd [12, 28]: below the threshold
- pKd [13, 28]: 3.51
- pKd [14, 28]: below the threshold
- pKd [15, 28]: below the threshold
- pKd [16, 28]: 4.32
- pKd [17, 28]: 3.51
- pKd [18, 28]: below the threshold
- pKd [19, 28]: below the threshold
- pKd [20, 28]: below the threshold
- pKd [21, 28]: below the threshold
- pKd [22, 28]: below the threshold
- pKd [23, 28]: 3.48
- pKd [24, 28]: below the threshold
- pKd [25, 28]: below the threshold
- pKd [26, 28]: 4.15

B3: SLC15A5, A6NIM6 (peptide)
chain: SSIDLWETAL
- pKd [1, 29]: below the threshold
- pKd [2, 29]: 5.22
- pKd [3, 29]: 4.43
- pKd [4, 29]: 3.87
- pKd [5, 29]: 3.8
- pKd [6, 29]: 4.31
- pKd [7, 29]: 5.35
- pKd [8, 29]: 4.04
- pKd [9, 29]: below the threshold
- pKd [10, 29]: below the threshold
- pKd [11, 29]: below the threshold
- pKd [12, 29]: below the threshold
- pKd [13, 29]: 4.66
- pKd [14, 29]: below the threshold
- pKd [15, 29]: 3.7
- pKd [16, 29]: 4.9
- pKd [17, 29]: below the threshold
- pKd [18, 29]: below the threshold
- pKd [19, 29]: 4.33
- pKd [20, 29]: 4.97
- pKd [21, 29]: below the threshold
- pKd [22, 29]: below the threshold
- pKd [23, 29]: 4.36
- pKd [24, 29]: below the threshold
- pKd [25, 29]: 5.87
- pKd [26, 29]: 5

B4: HPV82-E6, Q9IR59 (peptide)
chain: PPRQRSETQV
- pKd [1, 29]: below the threshold
- pKd [2, 29]: 3.72
- pKd [3, 29]: 4.75
- pKd [4, 29]: 4.12
- pKd [5, 29]: 4.63
- pKd [6, 29]: below the threshold
- pKd [7, 29]: below the threshold
- pKd [8, 29]: below the threshold
- pKd [9, 29]: below the threshold
- pKd [10, 29]: below the threshold
- pKd [11, 29]: below the threshold
- pKd [12, 29]: below the threshold
- pKd [13, 29]: below the threshold
- pKd [14, 29]: below the threshold
- pKd [15, 29]: below the threshold
- pKd [16, 29]: 3.45
- pKd [17, 29]: 3.73
- pKd [18, 29]: 5.54
- pKd [19, 29]: 5.89
- pKd [20, 29]: 4
- pKd [21, 29]: below the threshold
- pKd [22, 29]: below the threshold
- pKd [23, 29]: 3.88
- pKd [24, 29]: below the threshold
- pKd [25, 29]: 3.81
- pKd [26, 29]: 3.72

B5: NHERF1, O14745 (peptide)
chain: SKKNELFSNL
- pKd [1, 30]: below the threshold
- pKd [2, 30]: 3.98
- pKd [3, 30]: below the threshold
- pKd [4, 30]: below the threshold
- pKd [5, 30]: below the threshold
- pKd [6, 30]: below the threshold
- pKd [7, 30]: below the threshold
- pKd [8, 30]: below the threshold
- pKd [9, 30]: below the threshold
- pKd [10, 30]: below the threshold
- pKd [11, 30]: below the threshold
- pKd [12, 30]: below the threshold
- pKd [13, 30]: below the threshold
- pKd [14, 30]: below the threshold
- pKd [15, 30]: below the threshold
- pKd [16, 30]: below the threshold
- pKd [17, 30]: below the threshold
- pKd [18, 30]: below the threshold
- pKd [19, 30]: below the threshold
- pKd [20, 30]: below the threshold
- pKd [21, 30]: below the threshold
- pKd [22, 30]: below the threshold
- pKd [23, 30]: below the threshold
- pKd [24, 30]: below the threshold
- pKd [25, 30]: below the threshold
- pKd [26, 30]: 3.76
